Assay results from patent publication US20100129288A1.

Biological target: neurofascin on purified rat DRG neurons (rat) (UniProt P97685)
Assay: cell-based or functional assay

Chain of UniProt P97685 (P97685 25-1240, form in doubt): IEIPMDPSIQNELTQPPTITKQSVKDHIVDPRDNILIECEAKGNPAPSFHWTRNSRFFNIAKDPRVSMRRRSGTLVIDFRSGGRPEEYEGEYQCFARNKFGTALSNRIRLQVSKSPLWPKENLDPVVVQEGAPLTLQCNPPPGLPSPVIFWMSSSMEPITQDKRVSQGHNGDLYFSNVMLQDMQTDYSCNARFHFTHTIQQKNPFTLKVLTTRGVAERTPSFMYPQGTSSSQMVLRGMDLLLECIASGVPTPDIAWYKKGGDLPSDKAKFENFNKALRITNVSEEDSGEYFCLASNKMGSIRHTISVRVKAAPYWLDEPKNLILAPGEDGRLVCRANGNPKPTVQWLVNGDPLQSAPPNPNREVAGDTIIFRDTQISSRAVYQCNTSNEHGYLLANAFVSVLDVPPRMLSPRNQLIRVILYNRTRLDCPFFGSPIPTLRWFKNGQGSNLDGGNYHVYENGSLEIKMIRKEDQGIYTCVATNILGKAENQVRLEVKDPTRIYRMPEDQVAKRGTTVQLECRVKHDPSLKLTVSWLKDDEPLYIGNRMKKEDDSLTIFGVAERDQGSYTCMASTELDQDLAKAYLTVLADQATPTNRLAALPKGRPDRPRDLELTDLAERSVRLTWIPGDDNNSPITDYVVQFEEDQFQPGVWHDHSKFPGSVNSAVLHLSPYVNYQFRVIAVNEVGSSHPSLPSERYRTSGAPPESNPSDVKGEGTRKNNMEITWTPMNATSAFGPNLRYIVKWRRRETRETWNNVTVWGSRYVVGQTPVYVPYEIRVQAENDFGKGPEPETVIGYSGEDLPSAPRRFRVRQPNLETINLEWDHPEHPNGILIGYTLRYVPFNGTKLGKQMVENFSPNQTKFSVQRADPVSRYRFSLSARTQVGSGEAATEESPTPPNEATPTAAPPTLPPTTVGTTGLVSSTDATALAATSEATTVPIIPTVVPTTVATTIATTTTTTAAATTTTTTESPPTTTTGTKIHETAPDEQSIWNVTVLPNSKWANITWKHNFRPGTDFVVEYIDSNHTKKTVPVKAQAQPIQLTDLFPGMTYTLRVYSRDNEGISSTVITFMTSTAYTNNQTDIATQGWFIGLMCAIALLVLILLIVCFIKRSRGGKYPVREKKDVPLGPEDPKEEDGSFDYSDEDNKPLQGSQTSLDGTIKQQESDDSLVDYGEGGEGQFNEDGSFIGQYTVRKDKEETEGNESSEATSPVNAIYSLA

OLF-Fc clusters co-localized with neurofascin clusters: 96%
B1: OLF-Fc (Fc-fusion protein containing the olfactomedin domain of gliomedin) (Fc fusion, part only; not given: human Fc, part only)
chain, part: NDDTLVGRADEKVNERHSPQTEPMITSIGNPAQVLKVKETFGTWLRESANRSDDRIWVTEHFSGIMVKEFEDLPALLNSSFTLLHLPHYFHGCGHAVYNNSLYYHKGGSNTIVRFEFGKETPQTLKLEDALYFDRKYLFANSKTYFNIAVDEKGLWIIYASSVDGSSILVAQLDERTFSVLRHINTTYPKSKAGNAFIAQGILYVTDTKDTRVTFAFDLLRGKQINANFGLRMSQSVLAMLSYNMRDQHLYSWEDGHLMLYPVHFSSTAPS
